Data: patent US20160244497A1 (Amgen, published 2016)
Numbering of substitutions follows the chain as printed. In names and notes the source's numbering stands. Where two headings read alike, the source gives them in different places.

B1: PEGylated FGF21 mutant H125C (ligand)
chain: MHPIPDSSPLLQFGGQVRQRYLYTDDAQQTEAHLEIREDGTVGGAADQSPESLLQLKALKPGVIQILGVKTSRFLCQRPDGALYGSLHFDPEACSFRELLLEDGYNVYQSEAHGLPLHLPGNKSPCRDPAPRGPARFLPLPGLPPAPPEPPGILAPQPPDVGSSDPLSMVGPSQGRSPSYAS
modifications: 20 kDa methoxy-PEG-maleimide on Cys 125
B2: dually PEGylated FGF21 mutant R77C, G120C (ligand)
chain: B1 chain with R78C, G121C, C126H
modifications: 20 kDa methoxy-PEG-maleimide on Cys 77 and on Cys 120
B3: FGF21(all K to all R, R77K), 2 x 20k PEG (ligand)
chain: B1 chain with K57R, K60R, K70R, R78K, K123R, C126H
modifications: two 20k PEG (amine-specific): N-terminus and Lys 77
B4: dually PEGylated FGF21 mutant E91C, H125C (ligand)
chain: B1 chain with E92C
modifications: 20 kDa methoxy-PEG-maleimide on Cys 91 and on Cys 125
B5: FGF21(all K to all R, R36K), 2 x 20k PEG (ligand)
chain: B1 chain with R37K, K57R, K60R, K70R, K123R, C126H
modifications: two 20k PEG (amine-specific): N-terminus and Lys 36
B6: dually PEGylated FGF21 mutant G120C, R175C (ligand)
chain: B1 chain with G121C, C126H, R176C
modifications: 20 kDa methoxy-PEG-maleimide on Cys 120 and on Cys 175
B7: dually PEGylated FGF21 mutant E37C, G120C (ligand)
chain: B1 chain with E38C, G121C, C126H
modifications: 20 kDa methoxy-PEG-maleimide on Cys 37 and on Cys 120
B8: dually PEGylated FGF21 mutant E37C, R77C (ligand)
chain: B1 chain with E38C, R78C, C126H
modifications: 20 kDa methoxy-PEG-maleimide on Cys 37 and on Cys 77
B9: dually PEGylated FGF21 mutant E37C, H125C (ligand)
chain: B1 chain with E38C
modifications: 20 kDa methoxy-PEG-maleimide on Cys 37 and on Cys 125
B10: dually PEGylated FGF21 mutant K69C, E91C (ligand)
chain: B1 chain with K70C, E92C, C126H
modifications: 20 kDa methoxy-PEG-maleimide on Cys 69 and on Cys 91
B11: Native FGF21 (random), 2 x 20k PEG (ligand)
chain: B1 chain with C126H
modifications: two 20k PEG at random sites (sites not given)
B12: PEGylated FGF21 mutant R77C (ligand)
chain: B1 chain with R78C, C126H
modifications: 20 kDa methoxy-PEG-maleimide on Cys 77
B13: PEGylated FGF21 mutant D38C (ligand)
chain: B1 chain with D39C, C126H
modifications: 20 kDa methoxy-PEG-maleimide on Cys 38
B14: PEGylated FGF21 mutant Y179C (ligand)
chain: B1 chain with C126H, Y180C
modifications: 20 kDa methoxy-PEG-maleimide on Cys 179
B15: dually PEGylated FGF21 mutant E37C, R175C (ligand)
chain: B1 chain with E38C, C126H, R176C
modifications: 20 kDa methoxy-PEG-maleimide on Cys 37 and on Cys 175
B16: dually PEGylated FGF21 mutant E91C, R175C (ligand)
chain: B1 chain with E92C, C126H, R176C
modifications: 20 kDa methoxy-PEG-maleimide on Cys 91 and on Cys 175
B17: PEGylated FGF21 mutant D46C (ligand)
chain: B1 chain with D47C, C126H
modifications: 20 kDa methoxy-PEG-maleimide on Cys 46
B18: dually PEGylated FGF21 mutant G120C, H125C (ligand)
chain: B1 chain with G121C
modifications: 20 kDa methoxy-PEG-maleimide on Cys 120 and on Cys 125
B19: dually PEGylated FGF21 mutant R77C, R175C (ligand)
chain: B1 chain with R78C, C126H, R176C
modifications: 20 kDa methoxy-PEG-maleimide on Cys 77 and on Cys 175
B20: dually PEGylated FGF21 mutant H125C, R175C (ligand)
chain: B1 chain with R176C
modifications: 20 kDa methoxy-PEG-maleimide on Cys 125 and on Cys 175
B21: PEGylated FGF21 mutant E37C (ligand)
chain: B1 chain with E38C, C126H
modifications: 20 kDa methoxy-PEG-maleimide on Cys 37
B22: dually PEGylated FGF21 mutant E37C, E91C (ligand)
chain: B1 chain with E38C, E92C, C126H
modifications: 20 kDa methoxy-PEG-maleimide on Cys 37 and on Cys 91
B23: dually PEGylated FGF21 mutant E37C, G170C (ligand)
chain: B1 chain with E38C, C126H, G171C
modifications: 20 kDa methoxy-PEG-maleimide on Cys 37 and on Cys 170
B24: dually PEGylated FGF21 mutant R77C, H125C (ligand)
chain: B1 chain with R78C
modifications: 20 kDa methoxy-PEG-maleimide on Cys 77 and on Cys 125
B25: PEGylated FGF21 mutant R175C (ligand)
chain: B1 chain with C126H, R176C
modifications: 20 kDa methoxy-PEG-maleimide on Cys 175
B26: dually PEGylated FGF21 mutant R77C, E91C (ligand)
chain: B1 chain with R78C, E92C, C126H
modifications: 20 kDa methoxy-PEG-maleimide on Cys 77 and on Cys 91
B27: PEGylated FGF21 mutant E91C (ligand)
chain: B1 chain with E92C, C126H
modifications: 20 kDa methoxy-PEG-maleimide on Cys 91
B28: PEGylated FGF21 mutant D79C (ligand)
chain: B1 chain with D80C, C126H
modifications: 20 kDa methoxy-PEG-maleimide on Cys 79
B29: dually PEGylated FGF21 mutant K69C, R175C (ligand)
chain: B1 chain with K70C, C126H, R176C
modifications: 20 kDa methoxy-PEG-maleimide on Cys 69 and on Cys 175
B30: dually PEGylated FGF21 mutant K69C, R77C (ligand)
chain: B1 chain with K70C, R78C, C126H
modifications: 20 kDa methoxy-PEG-maleimide on Cys 69 and on Cys 77
B31: dually PEGylated FGF21 mutant E91C, G120C (ligand)
chain: B1 chain with E92C, G121C, C126H
modifications: 20 kDa methoxy-PEG-maleimide on Cys 91 and on Cys 120
B32: dually PEGylated FGF21 mutant K69C, G120C (ligand)
chain: B1 chain with K70C, G121C, C126H
modifications: 20 kDa methoxy-PEG-maleimide on Cys 69 and on Cys 120
B33: PEGylated FGF21 mutant G113C (ligand)
chain: B1 chain with G114C, C126H
modifications: 20 kDa methoxy-PEG-maleimide on Cys 113
B34: dually PEGylated FGF21 mutant E37C, K69C (ligand)
chain: B1 chain with E38C, K70C, C126H
modifications: 20 kDa methoxy-PEG-maleimide on Cys 37 and on Cys 69
B35: PEGylated FGF21 mutant N121C (ligand)
chain: B1 chain with N122C, C126H
modifications: 20 kDa methoxy-PEG-maleimide on Cys 121
B36: PEGylated FGF21 mutant G120C (ligand)
chain: B1 chain with G121C, C126H
modifications: 20 kDa methoxy-PEG-maleimide on Cys 120
B37: PEGylated FGF21 mutant R126C (ligand)
chain: B1 chain with C126H, R127C
modifications: 20 kDa methoxy-PEG-maleimide on Cys 126
B38: dually PEGylated FGF21 mutant K69C, H125C (ligand)
chain: B1 chain with K70C
modifications: 20 kDa methoxy-PEG-maleimide on Cys 69 and on Cys 125
B39: PEGylated FGF21 mutant K69C (ligand)
chain: B1 chain with K70C, C126H
modifications: 20 kDa methoxy-PEG-maleimide on Cys 69

Legend:
Test in all cases: cell-based or functional assay
beta-klotho [1] = target: beta-klotho
beta-klotho [2] = target: beta-klotho; remark: listed apart in the source
beta-klotho [3] = target: beta-klotho; remark: listed apart in the source

Binder	EC50, ELK-luciferase assay (beta-klotho [1]) [nM]	EC50, ELK-luciferase assay (beta-klotho [2]) [nM]	other results
B1	4.5	–	–
B2	–	34	–
B3	–	–	In Vitro Activity EC50, ELK-luciferase assay (beta-klotho [3]): 175 nM
B4	–	32	–
B5	–	–	In Vitro Activity EC50, ELK-luciferase assay (beta-klotho [3]): 73 nM
B6	–	118	–
B7	–	55	–
B8	–	21	–
B9	–	64	–
B10	–	69	–
B11	–	–	In Vitro Activity EC50, ELK-luciferase assay (beta-klotho [3]): 200 nM
B12	4.9	–	–
B13	13.1	–	–
B14	287	–	–
B15	–	50	–
B16	–	46	–
B17	27.8	–	–
B18	–	23	–
B19	–	62	–
B20	–	200	–

Binder	EC50, ELK-luciferase assay (beta-klotho [1]) [nM]	EC50, ELK-luciferase assay (beta-klotho [2]) [nM]	other results
B21	6.9	–	–
B22	–	36	–
B23	–	163	–
B24	–	30	–
B25	7.9	–	–
B26	–	26	–
B27	8.3	–	–
B28	20.4	–	–
B29	–	318	–
B30	–	180	–
B31	–	54	–
B32	–	119	–
B33	12	–	–
B34	–	67	–
B35	9.2	–	–
B36	6	–	–
B37	10	–	–
B38	–	164	–
B39	5.3	–	–
